{
  "source": "patent US20050074814A1",
  "about": "“Relaxin3-GPCR135 complexes and their production and use” (priority 2003, published 2005)",
  "key": {"GPCR135 [1]": {"target": "T1, GPCR135 (Homo sapiens, UniProt Q9NSD7)", "T1 sequence (Q9NSD7 1-469)": "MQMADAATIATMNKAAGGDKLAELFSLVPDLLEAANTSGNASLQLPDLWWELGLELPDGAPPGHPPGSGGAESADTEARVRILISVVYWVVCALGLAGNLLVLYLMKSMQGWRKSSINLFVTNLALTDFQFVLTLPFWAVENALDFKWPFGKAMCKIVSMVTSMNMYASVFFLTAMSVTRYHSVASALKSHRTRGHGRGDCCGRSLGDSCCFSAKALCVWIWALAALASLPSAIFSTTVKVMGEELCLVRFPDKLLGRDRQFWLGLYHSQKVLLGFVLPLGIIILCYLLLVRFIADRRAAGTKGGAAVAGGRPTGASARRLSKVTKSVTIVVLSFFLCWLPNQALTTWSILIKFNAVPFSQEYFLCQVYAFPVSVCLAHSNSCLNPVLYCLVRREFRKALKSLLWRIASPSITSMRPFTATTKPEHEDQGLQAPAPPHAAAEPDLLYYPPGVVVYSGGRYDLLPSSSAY", "experiment": "Radioligand binding assay on COS-7 cells transfected with GPCR135", "parameters": "primers complementary to the putative translation start and stop sites of the GPCR135 open reading frame; expressed in transfected cells", "conditions": "human GPCR135 in COS-7 cells; presence or absence of 1 μM unlabeled competitor", "experimental": "(§1) COS-7 cells in 6-well tissue culture plates were transfected by GPCR135 expressing plasmid using LipofectAmine. Two days after transfection, cells were washed with binding buffer: DMEM plus 50 mM Hepes, pH 7.2 and 1% BSA. ^125I-label human relaxin3 was added to each well in 1 ml of binding buffer at presence or absence 1 μM of unlabeled relaxin as competitor. The binding assays were carried out at room temperature for one hour and the unbound ligand was washed away by ice-cold PBS. The bound 125I-relaxin3 was counted in a gamma counter."}, "mouse GPCR135": {"target": "T2, mouse GPCR135 (Mus musculus, UniProt Q8BGE9)", "T2 construct": "Mouse GPCR135 coding region was PCR amplified from mouse genomic DNA; expressed in transfected cells; host or cells: COS-7 (transient)", "T2 sequence (Q8BGE9 1-472)": "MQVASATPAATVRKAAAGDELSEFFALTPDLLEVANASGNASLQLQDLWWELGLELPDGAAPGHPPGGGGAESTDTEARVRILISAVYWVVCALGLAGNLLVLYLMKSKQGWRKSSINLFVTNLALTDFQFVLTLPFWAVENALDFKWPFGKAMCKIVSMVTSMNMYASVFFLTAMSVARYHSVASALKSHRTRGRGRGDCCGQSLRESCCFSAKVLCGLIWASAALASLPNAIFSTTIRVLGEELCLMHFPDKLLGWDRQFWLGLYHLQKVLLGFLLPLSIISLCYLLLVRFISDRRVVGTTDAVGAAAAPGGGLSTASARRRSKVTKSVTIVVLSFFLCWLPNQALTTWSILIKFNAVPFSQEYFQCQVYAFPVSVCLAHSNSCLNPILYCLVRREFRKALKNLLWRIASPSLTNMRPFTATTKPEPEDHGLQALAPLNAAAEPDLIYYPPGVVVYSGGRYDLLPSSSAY", "experiment": "Radioligand binding assay on COS-7 cells transfected with GPCR135", "conditions": "mouse GPCR135 in COS-7 cells; presence or absence of 1 μM unlabeled competitor", "experimental": "as §1"}, "rat GPCR135": {"tested_on": "rat GPCR135", "sequence (as listed by the source)": "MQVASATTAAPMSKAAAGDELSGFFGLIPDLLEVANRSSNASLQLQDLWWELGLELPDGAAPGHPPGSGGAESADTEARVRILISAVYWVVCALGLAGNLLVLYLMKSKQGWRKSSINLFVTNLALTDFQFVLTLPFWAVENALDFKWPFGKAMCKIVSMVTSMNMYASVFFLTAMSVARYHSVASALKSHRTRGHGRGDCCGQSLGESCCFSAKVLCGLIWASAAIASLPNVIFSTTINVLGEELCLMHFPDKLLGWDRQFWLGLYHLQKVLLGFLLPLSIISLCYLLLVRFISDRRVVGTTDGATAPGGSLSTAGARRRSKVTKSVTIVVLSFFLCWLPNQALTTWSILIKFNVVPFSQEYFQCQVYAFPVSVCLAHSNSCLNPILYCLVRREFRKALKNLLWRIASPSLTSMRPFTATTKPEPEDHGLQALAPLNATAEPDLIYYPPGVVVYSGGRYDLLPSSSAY", "experiment": "Radioligand binding assay on COS-7 cells transfected with GPCR135", "conditions": "rat GPCR135 in COS-7 cells; presence or absence of 1 μM unlabeled competitor", "experimental": "as §1"}, "GPCR135 [2]": {"target": "T1, GPCR135", "parameters": "host or cells: Cos-1 (transient)", "conditions": "transient expression of GPCR135 in Cos-1 cells; cited from earlier work"}, "human GPCR135": {"tested_on": "human GPCR135", "experiment": "Intracellular cAMP accumulation assay in CHO-K1 cells stably expressing human GPCR135", "type": "cell-based", "conditions": "in the presence of GPCR135", "experimental": "(§2) CHO-K1 cells stably expressing human GPCR135 were established by transfection of GPCR135 expressing plasmid into CHO-K1 (ATCC# CCL-61) cells and culturing the transfected cells under selection of G418 (400 mg/L). The receptor expressing cells were seeded in 96-well plates at a cell density of 30,000 cells/well. Twenty-four hours later, cell culture medium was replaced with DMEM-F12 plus 2 mM IBMX (sigma). A different test compound for cAMP stimulation was added to each well. The reactions were incubated at room temperature for 20 min. Twenty micro-liters of 0.5 N HCl was added to each well to stop the reaction and extract the accumulated cAMP. The cAMP concentration was measured using a cAMP ELISA kit (NEN)."}, "CHO-K1 cells": {"tested_on": "CHO-K1 cells", "experiment": "Intracellular cAMP accumulation assay in un-transfected CHO-K1 control cells", "type": "cell-based", "experimental": "CHO-K1 cells stably expressing human GPCR135 (GPCR135) and un-transfected CHO-K1 cells (Control) were used for cAMP accumulation assays. Cells were treated with different stimulants as indicated. cAMP accumulated in the cells was extracted by HCl and the concentration of cAMP was measured by a ELISA kit (NEN) using ^125I-labeled cAMP and Flash plates.\nas §2"}, "GPCR135 [3]": {"target": "T1, GPCR135", "experiment": "GTPγS binding assay with GPCR135 expressing cell membranes", "type": "biochemical", "parameters": "primers complementary to the putative translation start and stop sites of the GPCR135 open reading frame; expressed in transfected cells; host or cells: CHO-K1 (transient, pCIneo vector), membranes", "conditions": "isolated membranes of CHO-K1 cells transfected with GPCR135; 35S-GTPγS", "experimental": "Frozen rat brains (5 g) were homogenized at −30° C. in 40 ml ethanol/HCl (ethanol to 0.8M HCl ratio at 3:1). The homogenate was extracted at 4° C. for 2 hr and then centrifuged at 4° C. at 20,000 g for 30 min. The supernatant was loaded onto a 2 ml SP-Sephadex C-25 column (Amersham), washed with 1 M acetic acid and eluted with 2 M pyridine and 1 M acetic acid. The eluted fraction was loaded onto a 6 ml C-18 BondElut column, washed with 0.1% TFA and eluted with 60% acetonitrile and 0.1% TFA. The eluted peptides were lyophilized, reconstituted in water, and tested for GPCR135 ligand activity using GTPγS binding assay as described in Example 5.\nGPCR135 expression vector was transfected into CHO-K1 cells using Lipofectamine (Invitrogen). Two days after transfection, the transfected cells were harvested and homogenized in GTPγS binding buffer: 50 mM Tris-HCl, pH 7.4, 10 mM MgCl2, 1 mM EDTA pH 8.0, and 100 mM NaCl. Protease inhibitors were added to the buffer at concentrations of 1 mM PMSF, 10 μg/ml of pepstain A, 10 μg/ml of leupeptin. Cell membranes were isolated by centrifugation at 20,000 g for 30 min. […] Microscint-40 (Packard) was added to each well and the plate was counted on a top counter (TopCount NTX, Packard)."}, "GPCR135 [4]": {"target": "T1, GPCR135", "experiment": "Ca2+ mobilization assay (FLIPR) in HEK293 cells co-expressing GPCR135 and Gqi5", "type": "cell-based", "parameters": "primers complementary to the putative translation start and stop sites of the GPCR135 open reading frame; expressed in transfected cells", "experimental": "Using LipofectAmine, human embryonic kidney (HEK) 293 cells were co-transfected with a plasmid expressing GPCR135 receptor and a plasmid expressing Gqi5, a mutant G-protein that translates the activation of GPCR135 into an increased intracellular Ca 2+, or increased Ca^2+ mobilization (Conklin et al., 1993, Nature 363: 274-276). Two days after transfection, cells were detached with PBS plus 10 mM EDTA, pH 8.0. The detached cells were washed with DMEM-F12 medium (without phenol red, Invitrogen) and seeded in black poly-D lysine coated 96-well plates at a cell density of 50,000 cell/well. Calcium dye, Fluo-3 (AM) (TEFLABS, Austin, Tex.) was loaded into the cells and ligand stimulated calcium mobilization was monitored using FLIPR (Molecular Device).\nHEK293 cells, untransfected (293 Control) or transfected by Gqi5 (293/Gqi5) alone or human GPCR135 (GPCR135) alone, or co-transfected by human GPCR135 and Gqi5 (GPCR135/Gqi5), were used for Ca^2+ mobilization assays under stimulation of relaxin3 as the ligand. Ligand-stimulated intracellular mobilization was monitored using FLIPR."}, "LGR7": {"target": "T3, LGR7 (Homo sapiens, UniProt Q9HBX9)", "T3 sequence (Q9HBX9 1-757)": "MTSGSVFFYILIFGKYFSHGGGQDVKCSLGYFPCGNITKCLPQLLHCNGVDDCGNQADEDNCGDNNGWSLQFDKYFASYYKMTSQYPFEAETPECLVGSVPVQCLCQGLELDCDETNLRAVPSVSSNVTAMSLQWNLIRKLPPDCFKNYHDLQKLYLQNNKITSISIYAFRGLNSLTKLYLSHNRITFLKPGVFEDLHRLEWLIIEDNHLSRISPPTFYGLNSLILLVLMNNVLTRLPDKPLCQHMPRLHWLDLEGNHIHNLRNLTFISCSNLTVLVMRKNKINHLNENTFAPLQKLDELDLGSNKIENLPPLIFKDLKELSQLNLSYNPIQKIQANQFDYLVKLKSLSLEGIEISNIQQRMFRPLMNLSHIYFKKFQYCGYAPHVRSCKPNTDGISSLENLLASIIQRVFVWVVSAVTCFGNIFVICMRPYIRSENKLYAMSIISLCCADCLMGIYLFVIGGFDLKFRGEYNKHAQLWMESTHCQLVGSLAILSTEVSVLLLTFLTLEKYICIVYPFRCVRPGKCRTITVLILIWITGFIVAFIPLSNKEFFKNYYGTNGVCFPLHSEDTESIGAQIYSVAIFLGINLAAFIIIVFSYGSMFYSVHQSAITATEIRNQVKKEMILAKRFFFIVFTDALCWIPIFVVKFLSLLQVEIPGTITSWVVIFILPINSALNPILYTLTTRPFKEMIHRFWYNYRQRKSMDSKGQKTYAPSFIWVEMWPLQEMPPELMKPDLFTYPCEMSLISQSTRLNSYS", "conditions": "cited from earlier work"}, "GPCR135 [5]": {"target": "T1, GPCR135", "experiment": "Intracellular cAMP accumulation assay in CHO-K1 cells stably expressing human GPCR135", "type": "cell-based", "parameters": "primers complementary to the putative translation start and stop sites of the GPCR135 open reading frame; expressed in transfected cells; host or cells: CHO-K1 (transient, pCIneo vector), membranes", "conditions": "CHO-K1 cells expressing human GPCR135", "experimental": "as §2"}},
  "data": [
    {"compound": "^125I-relaxin 3: 125I-labeled human relaxin3 used as radioligand", "values": [
      {"measurement": "specific binding to GPCR135", "setting": "GPCR135 [1]", "value": "specifically binds"},
      {"measurement": "specific binding to GPCR135", "setting": "mouse GPCR135", "value": "specifically binds"},
      {"measurement": "specific binding to GPCR135", "setting": "rat GPCR135", "value": "specifically binds"}
    ]},
    {"compound": "angiotensin II (DRVYIHPF; Angiotensin-2; UniProt P01019 25-32, looked up)", "values": [
      {"measurement": "binding sites on GPCR135 expressing cells", "setting": "GPCR135 [2]", "value": "did not produce any binding sites"}
    ]},
    {"compound": "C=C[C@@]1(C)CC(=O)[C@]2(O)[C@@]3(C)[C@@H](O)CCC(C)(C)[C@@H]3[C@H](O)[C@H](OC(C)=O)[C@@]2(C)O1", "note": "[forskalin]", "values": [
      {"measurement": "intracellular concentration of cAMP", "setting": "human GPCR135", "value": "increases the intracellular concentration of cAMP"},
      {"measurement": "intracellular concentration of cAMP", "setting": "CHO-K1 cells; in the absence of GPCR135", "value": "increases the intracellular concentration of cAMP"}
    ]},
    {"compound": "relaxin3: recombinant human relaxin3, mature two-chain (A and B) peptide linked by disulfide bridges, purified from transfected COS-7 medium", "values": [
      {"measurement": "stimulation of GTPγS binding in GPCR135 expressing cell membrane", "setting": "GPCR135 [3]", "value": "potently stimulated GTPγS binding"},
      {"measurement": "ligand-stimulated intracellular Ca2+ mobilization", "setting": "GPCR135 [4]", "value": "stimulated Ca^2+ mobilization"},
      {"measurement": "forskalin-stimulated cAMP accumulation", "setting": "CHO-K1 cells; control cells where GPCR135 is absent", "value": "not in control cells"},
      {"measurement": "activation of LGR7", "setting": "LGR7", "value": "activates LGR7"},
      {"measurement": "forskalin-stimulated cAMP accumulation", "setting": "GPCR135 [5]", "value": "inhibits forskalin-stimulated cAMP accumulation"}
    ]}
  ]
}
